Measurements from patent US20080023859A1, “Glycopeptides and Temperature-Responsive Micelles” (Toagosei Co., Ltd., priority 2003, published 2008).

Assay: Measurement of micelle formation by dynamic light scattering (particle diameter)
Format: physicochemical
Details: DLS in solution at various temperatures
Experimental: The micelle formation was observed by measuring the particle diameter of glycopeptides using dynamic light scattering (DLS; HK-6600 manufactured by Otsuka Electronics Co., Ltd.).
For the solution of Compound 1, the temperature was varied between a temperature range of 15° C. to 35° C. for 15 minutes, the temperature variation was repeated, and the particle diameters were measured at 15° C. and 35° C..

Substance: NH2-Val-Pro-Gly-Val-Gly-Val-Pro-Gly-Val-Gly-OH (H-VPGVGVPGVG-OH) [reference peptide molecule]
- particle diameter of aggregate (in words): very large particle diameter
